Test [1] concerns the target T1, peptide representing uncleaved AREG (human).
T1 construct: also called full length AREG peptide; intact AREG
T1 peptide: SMKTHSMIDSSLSKIAC
The test is described as follows: ELISA on peptides representing cleaved and uncleaved AREG.

Test [2] deals with T2, cleaved amphiregulin (cell-associated transmembrane stalk left after TACE/ADAM17 cleavage of human AREG) (human, UniProt P15514 188-252).
T2 construct: Endogenous protein on MCF7 cells and in formalin-fixed human tumor tissue; also called cleaved AREG; cell surface cleaved AREG
T2 sequence: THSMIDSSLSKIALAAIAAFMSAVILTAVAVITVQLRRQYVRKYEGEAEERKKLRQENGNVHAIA
Put plainly: live-cell fluorescence imaging of MCF-7 cells with 1A3-pHrodo. How it is done: In order to study internalization, 1A3 was conjugated with pHrodo iFL Red dye using pHrodo iFL Red Microscale Protein Labeling Kit (P36014, Thermo Fisher Scientific). MCF7 cells were seeded in 12 mm Nunc Glass Bottom Dish, at a density of 1×10⁵ cells/dish. After allowing the cells to attach overnight, the cells were incubated for 60 min with […] Hoechst dye for nuclei staining and LysoTracker® Green DND-26 (Thermo Fisher Scientific) for lysosomal labeling. The cells were then incubated with 1A3-pHrodo (2 μg/mL) for 20 min at 37° C. After washing the wells with PBS, the cells were supplemented with 1× live-cell imaging solution (Molecular probes, Thermo Fisher Scientific). Fluorescence images were acquired at 30 min intervals for 2.5 h with the Olympus 1X71 inverted fluorescence microscope (Olympus, Shinjuku, Tokyo, Japan). TAPI-2 (20 μM)—pre-treatment was performed overnight, with DMSO serving as a control.

Test [3] has as its target T2, cleaved amphiregulin (cell-associated …). The test is described as follows: immunohistochemistry on a breast tumor tissue micro-array, 10 µg/mL antibody. As for the experimental part: A breast disease spectrum tissue micro-array was purchased from US Biomax Inc. (Derwood, Md., USA). The slides were deparaffinized in xylene and rehydrated by serial incubations in graded ethanol and then in water in a Histo-Tek® SL Slide Stainer (Sakura Finetek USA, Inc., Torrance, Calif., USA). Antigen retrieval was performed in a steamer by boiling slides in a container of citrate buffer (pH 6.0) for 20 min, which was then removed for 15 min of cooling on the benchtop. Slides were washed in 1× Wash buffer (Dako Agilent, Santa Clara, Calif., USA) and endogenous peroxidase was quenched by incubating with Dako Dual Endogenous Enzyme Block (S2003) for 10 min. […] Slides were washed four times in 1× Wash buffer, followed by the incubation for 45 min at room temperature in 1:100 dilution of […] immunoglobulins/HRP (Dako, P0160 or ready-to-use goat anti-rabbit HRP labeled polymer (Dako, K4003). The slides were washed twice in 1× Wash buffer and the color was developed with 3,3-diaminobenzidine tetrahydrochloride substrate chromogen system (K3468, DAKO, Santa Clara, Calif., USA). Sections were washed with water and counterstained with hematoxylin, rinsed with water, dehydrated by serial ethanol washes to 100%, cleared and mounted in Permount (Thermo Fisher Scientific). […]

B1: GMF-3E4 rabbit monoclonal IgG antibody (antibody, V domains shown)
VH: QSVKESEGRLVTPGTPLTLTCTVSGFSLSDYWMSWVRQAPGKGLEWIGIAGYSDNTYYASRAKGRFTISKTSTTVVLKITRPTTEDTATYFCVRDLYGVYSSGTTLWGPGTLVTVSS
VL: ELVMTQTPSPVSAAVGGTVTISCQSSQSVYNNNRLAWFQQKPGQPPKLLIYYASTLASGVSSRFKGSGSGTQFTLIISDVVCDDAATYYCQGYYSGGITGFGGGTEVVVK
Consider B1, for which the binding result in test [1] is “no binding”.

B2: 1A3 conjugated with pHrodo iFL Red dye (antibody, V domains shown)
VH: QSVKESEGRLVTPGTPLRLTCTVAGYSLSRYHMCWVRQAPGKGLEWIGMIGGSGRTDYASWAKGRFTISKTSTTVDLKITSPTTEDTATYFCSTVYTDSDGDFWGPGTLVTVSS
VL: ELDMTQTPSSKSVPVGGTVTINCQASESVYSNDRLAWFQQKPGQPPKLLIYYASTLASGVPSRFKGSGSGTQFTLTISDLECADAATYYCQSCYDMSSYGVAFGGGTELEIL
modifications: pHrodo iFL Red dye conjugated to the antibody; positions not given
notes: also called 1A3-pHrodo; 1A3 pHrodo
Turning to B2, the binding result in test [2] was “binds”.

B3: GMF-1A3 rabbit monoclonal IgG antibody (antibody, V domains shown)
VH: QSVKESEGRLVTPGTPLRLTCTVAGYSLSRYHMCWVRQAPGKGLEWIGMIGGSGRTDYASWAKGRFTISKTSTTVDLKITSPTTEDTATYFCSTVYTDSDGDFWGPGTLVTVSS
VL: ELDMTQTPSSKSVPVGGTVTINCQASESVYSNDRLAWFQQKPGQPPKLLIYYASTLASGVPSRFKGSGSGTQFTLTISDLECADAATYYCQSCYDMSSYGVAFGGGTELEIL
notes: also called anti-cleaved-AREG 1A3 antibody; unconjugated 1A3
For the molecule B3, the binding result in test [3] is on record as “binds”; in test [1], “no binding”.

The values are drawn from US20220411532A1 (GUNDERSEN LUTHERAN MEDICAL FOUNDATION, published 2022).
